Reference: patent US7193044B1, “Compounds and methods for regulating apoptosis, and methods of making and screening for compounds that regulate apoptosis” (Immunogen, Inc., priority 2000, dated 2007)
Entries after “also recorded” stand apart in the source; their conditions may differ.

Columns and labels:
[1] = tested on: HeLa cells; experiment: Fluorescence-based beta-galactosidase assay of BAD-induced cell death in transfected HeLa cells; design: species or system human; settings: SFM vs SFM+EGF, 12 hours
Experimental: FIG. 12(B) is a graphic representation of the results of a β-galactosidase assay. HeLa cells were co-transfected with the β-galactosidase gene and either HA-BAD (“WT”), HA-BAD S155A (“S155A”), HA-BAD S112A/S136A (“S112A/S136A”) or HA-BAD S112A/S136A/S155A (“AAA”). Transfected cells were then cultured in serum-free medium (SFM) or SFM supplemented with EGF (SFM+EGF) for 12 hours. Cell lysates were prepared and BAD-induced cell death was measured by the loss of β-galactosidase activity in a fluorescence-based assay. Fluorescence was measured at 465 nm. Results shown are the average and standard deviation of triplicate transfections (this experiment was repeated two more times with similar results). Expression levels of HA-tagged BAD and BAD mutants in transfected cell lysates were detected by anti-HA western blot analysis: HA-BAD (“WT”), HA-BAD S155A (“A”), HA-BAD S112A/S136A (“AA”), and HA-BAD S112A/S136A/S155A (“AAA”).
FIG. 12(C) is a graphic representation of the results of a β-galactosidase assay. HeLa cells were co-transfected with the β-galactosidase gene and either an empty vector (“CTL”), wild-type BAD (“WT”), the BAD S155A mutant (“S155A”) or the BAD S155D mutant (“S155D”). Cell lysates were prepared and BAD-induced cell death was measured by the loss of β-galactosidase activity in a fluorescence-based assay. Fluorescence was measured at 465 nm. Results shown are the average and standard deviation of triplicate transfections (this experiment was repeated two more times with similar results).
HeLa cells were co-transfected with the β-galactosidase gene and either wild-type BAD, BAD S155A, BAD S112A/S136A or BAD S112A/S136A/S155A. […] Cell lysates were prepared and BAD-induced cell death was measured by the loss of β-galactosidase activity in a fluorescence-based assay. […]
To measure β-gal activity, HeLa cells were plated in 12-well plates at 5×10^4 cells/well one day prior to transfection. […] Beta-gal activity was measured in extracts using a fluorogenic substrate (MUG, BIO-RAD FluorAce™ β-gal Reporter Assay, #170–3150). […]

[2] = tested on: HeLa cells; experiment: Beta-gal ELISA apoptosis assay in transfected HeLa cells; assay type: cell-based, human; settings: HeLa cells, 24 hours post-transfection
Experimental: Because BAD Ser155 phosphorylation, like Ser136 phosphorylation, prevents BAD from binding to Bcl-XL (FIG. 1), it was possible that by analogy, Ser155 dephosphorylation promotes cell death. To test this idea, HeLa cells were co-transfected with BAD or various BAD serine mutants and a β-gal reporter plasmid. Twenty-four hours post-transfection, cell viability was analyzed by β-gal ELISA.
To test this idea, HeLa cells were again co-transfected with BAD or various BAD serine mutants and a β-gal reporter plasmid. Forskolin was then added to half of the cultures while the other half was left untreated. Beta-gal ELISAs were performed 24 hours post transfection. […] Thus, phosphorylation of Ser155 rescues cells from BAD-induced apoptosis, while substitution of Ser155 with a nonphosphorylatable residue results in increased cell death and the failure of cells to be protected from induced PKA activity.
Beta-gal ELISA assays were performed using the β-gal ELISA system from Boehringer Mannheim, according to manufacture's instructions. Cells were transfected with BAD (or BAD mutant) and β-gal in a ratio of 5:1. The transfected cells were trypsinized and distributed into 96-well tissue culture plates. Twenty-four hours after transfection, cell extracts were obtained by lysing the cells in lysis buffer. Cell extracts (200 μl) were then added to anti-β-gal-coated microtiter plates (MTP). The MTPs were foil-covered and incubated for one hour at 37° C. Solutions were then decanted and the MTPs were washed, followed by the addition of 200 μl of anti-β-gal-DIG working solution, and incubation for an additional hour as described above. Solutions were again decanted, the MTPs washed and 200 μl of DIG-POD working solution were added. The MTPs were incubated for another hour at 37° C., the solution decanted, and the wells washed. 200 μl of substrate with enhancer were added to each well and incubated at room temperature until color development. The β-gal activity was measured by the absorbance of the sample at […]. Data were based on triplicate wells with standard deviations calculated.

B1: BAD S155A: mutant of shorter murine BAD, serine corresponding to Ser155 substituted with alanine; HA- or GST-tagged (protein)
chain: MFQIPEFEPSEQEDASATDRGLGPSLTEDQPGPYLAPGLLGSNIHQQGRAATNSHHGGAGAMETRSRHSSYPAGTEEDEGMEEELSPFRGRSRSAPPNLWAAQRYGRELRRMADEFEGSFKGLPRPKSAGTATQMRQSAGWTRIIQSWWDRNLGKGGSTPSQ
modifications: left off: small tags and cut ends
notes: mutant of shorter murine BAD, serine corresponding to Ser155 substituted with alanine; HA- or GST-tagged
effect of EGF stimulation on pro-apoptotic activity of the BAD mutant [1]: does not eliminate the protective effect of EGF
effect of expressed BAD mutant on cellular survival / cell death [2]: greatest effect on cellular survival, with a significant increase in cell death compared to the control; also recorded: enhanced apoptotic activity compared with the wild-type mammalian BAD
